From patent US9345765B2, “Diagnostic and therapeutic uses of moesin fragments” (SHANGHAI KEXIN BIOTECH CO., LTD., priority 2010, dated 2016)

B1: N-terminal FERM domain of moesin: N-terminal FERM domain of human moesin, amino acid residues 1-297 (SEQ ID NO:2), expressed in E. coli BL21(DE3) (protein)
chain: MPKTISVRVTTMDAELEFAIQPNTTGKQLFDQVVKTIGLREVWFFGLQYQDTKGFSTWLKLNKKVTAQDVRKESPLLFKFRAKFYPEDVSEELIQDITQRLFFLQVKEGILNDDIYCPPETAVLLASYAVQSKYGDFNKEVHKSGYLAGDKLLPQRVLEQHKLNKDQWEERIQVWHEEHRGMLREDAVLEYLKIAQDLEMYGVNYFSIKNKKGSELWLGVDALGLNIYEQNDRLTPKIGFPWSEIRNISFNDKKFVIKPIDKKAPDFVFYAPRLRINKRILALCMGNHELYMRRRKP
modifications: N-terminal FERM domain of human moesin protein

What was measured:
Type in all cases: cell-based, human
platelets [1] = assay: Stimulation of platelet activation: CD62P and CD63 expression in plasma by flow cytometry; details: for CD62P FD (Mnx) / CD63 FD (Mnx): agent alone in plasma of 12 healthy individuals, final conc. ADP 5 μM, antibody 20 μg/ml, FERM domain 2 mM
Protocol: The expressions of CD62P and CD63 are associated with platelet activation. Therefore, these two proteins can be used as indicators to characterize the profile of platelet activation. This experiment was performed in vitro to assess stimulation of platelet activation in the presence of various agents by detecting the expression levels of CD62P and CD63 using CD62P monoclonal antibody and CD63 monoclonal antibody.
Plasma samples were collected from 12 healthy individuals, and cultured at room temperature in the presence of various agents as described in Table 1 below for several minutes (e.g. 5 mins). The culture conditions were selected so that the platelets can be fully activated within about 10 mins. After that, CD62P monoclonal antibody and CD63 monoclonal antibody labeled with fluorescein isothiocyanate (FITC) were used to detect the expressed CD62P and CD63 in the plasma samples, and the fluorescence density (“FD”) of the plasma samples was detected using flow cytometry of Beckman Coulter EPICS-XL. The expression levels of the CD62P and CD63 were represented by the average value of fluorescence density detected.
The agents being tested in this assay are listed in Table 1 below, including ADP which is known as an agent stimulating platelet activation (Group 1), the anti-moesin N-terminal domain antibody (Group 2) and the N-terminal FERM domain of moesin (Group 3) which were both prepared according to Example 1.
The concentration of an agent listed in Table 1 is a final concentration of the agent in the plasma sample. A plasma sample without any of the test agents was tested as a control group. The results are listed in Table 1 below and also illustrated in FIG. 6.

platelets [2] = assay: Platelet aggregation assay (Born method, transparency)
Protocol: Plasma samples were collected from 6 healthy individuals and mixed with 3.8% sodium citrate in the ratio of 9:1 (v/v) to prevent solidification of the plasma. The mixed plasma samples were then centrifuged to obtain a portion of platelet-rich plasma (“PRP”) and another portion of platelet-poor plasma (“PPP”). The PRP was diluted with PPP to obtain a plasma sample having a platelet count of 5×10^8 per milliliter as a testing plasma sample for later use.
The testing plasma sample was incubated in the presence of an inhibitor of platelet activation as described in Table 3 below for several minutes, and thereafter an activator of platelet activation as described in Table 3 below was added therein and the plasma sample was further incubated for another several minutes to obtain a final mixture. The final mixture was detected for blood aggregation by measuring the transparency of the sample using TYXN-91 Intelligent Blood Agglutometer according to the Born methods. The transparency of PRP in the presence of either ADP or antibody against the N-terminal domain of moesin was also detected as positive controls. A negative control containing no inhibitor was also tested.
The testing results which was shown as platelet aggregation rate (“PAR”) and platelet aggregation inhibition rate (“PAIR”) are listed in Table 3 below.
PAR is calculated by, 1) subtracting PPP's transparency with the testing group's transparency, and 2) dividing the result of step 1) by PPP's transparency and then multiplying 100%. PAIR is calculated by, 1) subtracting the PRP group's PAR with the testing group's PAR, and 2) dividing the result of step 1) by the PRP group's PAR and then multiplying 100%.
The RGDS was prepared according to a conventional peptide synthesis in solid phase and used herein with a concentration of 10 ug/ml in 0.01M PBS. The moesin fragments and anti-moesin antibodies used in this experiment were prepared according to Example 1. The concentration regarding an inhibitor as described in Table 3 below is a final concentration of the inhibitor in the testing plasma sample, and the concentration regarding the activator of ADP and the antibody against N-terminal FERM domain of moesin also refers to a final concentration in the testing plasma sample.

platelets [3] = assay: Inhibition of platelet activation induced by activators: CD62P and CD63 expression by flow cytometry; set-up: key to CD62P FD (Mnx) / CD63 FD (Mnx): mean fluorescence density by flow cytometry; details: for effect on platelet activation induced by ADP (in words): activator ADP; for effect on platelet activation induced by the antibody against the N-terminal FERM domain of moesin (in words): activator anti-moesin N-terminal domain antibody; for CD62P FD (Mnx) / CD63 FD (Mnx): inhibitor first, n = 12
Protocol: This experiment is performed to assess the blocking effect of various inhibitors (i.e. test agents) on the platelet activation induced by various different activators.
The plasma samples were collected from 12 healthy individuals, and cultured in the presence of an inhibitor as described in Table 2 below for several minutes (e.g. 5 mins), and thereafter an activator of platelet activation was added therein and the plasma samples were further cultured for another several minutes (e.g. 5 mins). The culture conditions were the same as Example 2. After that, CD62P monoclonal antibody and CD63 monoclonal antibody labeled with FITC were used to detect the expressed CD62P and CD63 in the plasma samples, and the fluorescence density of the plasma samples was detected using flow cytometry of Beckman Coulter EPICS-XL. The expression levels of the CD62P and CD63 were represented by the average value of fluorescence density detected. A control group using 0.01M PBS instead of any inhibitor was also tested.
The peptide RGDS is known as an inhibitor of platelet activation that inhibits platelet's activation by competing with platelet activator combined-1 (PAC-1) to bind to glycoprotein (GP) IIb/IIIa complex on the surface of platelets. The RGDS was prepared according to a conventional peptide synthesis in solid phase and used herein with a concentration of 10 mg/ml in 0.01 M PBS. The moesin fragments and anti-moesin antibodies used in this experiment were prepared according to Example 1. As used in this experiment, the anti-moesin N-terminal domain antibody has a concentration of 20 μg/ml in 0.01M PBS, the N-terminal FERM domain has a concentration of 2 mM in 0.01M PBS, and the anti-moesin C-terminal domain has a concentration of 20 μg/ml in 0.01M PBS. The ADP used herein has a concentration of 5 μM in 0.01M PBS. The results are listed in Table 2 below and also illustrated in FIG. 7.

[4] = then activator ADP (50 μl, 5 μM)
[5] = then activator Anti-moesin N-terminal domain (50 μl, 20 μg/ml)
[6] = activator ADP (5 μM), inhibitor at final concentration of Table 3, n = 6
[7] = activator Anti-moesin N-terminal domain antibody (2 μg/mL), n = 6

Row | Molecule | CD62P FD (Mnx) (platelets [1]) | CD63 FD (Mnx) (platelets [1]) | PAR (%) of PRP with the activator alone (platelets [2]; PRP positive control, no inhibitor, ADP 5 μM or antibody 2 μg/mL, n = 6) | effect on platelet activation induced by ADP (in words) (platelets [3]) | effect on platelet activation induced by the antibody against the N-terminal FERM domain of moesin (in words) (platelets [3]) | CD62P FD (Mnx) (platelets [3]; [4]) | CD63 FD (Mnx) (platelets [3]; [4]) | CD62P FD (Mnx) (platelets [3]; [5]) | CD63 FD (Mnx) (platelets [3]; [5]) | PAR (%) platelet aggregation rate (platelets [2]; [6]) | PAIR platelet aggregation inhibition rate (platelets [2]; [7]) | PAR (%) platelet aggregation rate (platelets [2]; [7]) | inhibition of platelet aggregation induced by the antibody against the N-terminal FERM domain of moesin (in words) (platelets [2]; activator anti-moesin N-terminal domain antibody) | stimulation of platelet activation (in words) (platelets [1]; agent alone, CD62P and CD63 expression vs control group) | inhibition of platelet aggregation induced by ADP (in words) (platelets [2]; activator ADP) | PAIR platelet aggregation inhibition rate (platelets [2]; [6]) | PAIR platelet aggregation inhibition rate (platelets [2]; activator Anti-moesin N-terminal domain antibody (2 μg/mL), n = 6, listed as N-terminal domain)
1 | Nc1ncnc2c1ncn2[C@@H]1O[C@H](COP(=O)(O)OP(=O)(O)O)[C@@H](O)[C@H]1O [ADP, reference compound] | 12.88 | 11.31 | 45.62% |  |  |  |  |  |  |  |  |  |  |  |  |  | 
2 | RGDS [solid-phase synthesis, reference compound] |  |  |  | can substantially inhibit | no blocking effect | 7.04 | 5.61 | 17.98 | 20.13 | 11.12% | 9.77% | 55.55% | much less inhibiting effect |  |  |  | 
3 | B1 | 2.99 | 1.55 |  | no significant effect | can significantly block | 11.38 | 7.23 | 5.79 | 6.30 | 27.55% | approximately 90% | 6.03% |  | does not stimulate platelet activation | much less | 39.61% | 90.21%
